Test results taken from the supplement of paper PMC9170038.

System: MS2 coat protein
Assay: apparent KD of MS2 coat protein; higher = weaker reporter binding
Details: Eterna round: R107
In short: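 Titration buffer: 100 mM Tris-HCl pH 7.5, 80 mM KCl, 4 mM MgCl2, without or with constant ligand. Designed RNA switches transcribed on-chip from Illumina sequencing clusters received SNAP-549-labelled MS2 coat protein in twofold steps from 0.7 or 1.5 nM to 3 µM. Apparent KD is the median per design of fits to normalised cluster binding curves.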

[1] = input ligand: theophylline 20 uM
[2] = input ligand: theophylline 2 mM
[3] = input ligand: tryptophan 2.4 mM

For “CGAUAUAAGACGGCCGCCACUAUUAUGUAACAAAAUAAACAUGAGGAUCACCCAUGUACAUGGGAUAGGACCGGGUCCAAUAACG [#21 Same State - Tryptophan B]”, the “apparent KD of MS2 coat protein” value (input ligand: arginine 13.2 mM) was 98.7 nM, the “apparent KD of MS2 coat protein” value [1] was 148 nM and the “apparent KD of MS2 coat protein” value [2] was 151 nM.
“GCGCUCGACAGAAGGAGCGGCGACGUCGGUGUCAGGAGGCACAUGAGGAUCACCCAUGUCAGCCAGGUAGGUCGCUGUCGAUCGC [Arquce]” was tested, and the “apparent KD of MS2 coat protein” value (input ligand: arginine 13.2 mM) was 22.8 nM, the “apparent KD of MS2 coat protein” value (input ligand: none) was 37.3 nM and the “apparent KD of MS2 coat protein” value [1] was 41.9 nM. The “apparent KD of MS2 coat protein” value [2] was 40.1 nM and the “apparent KD of MS2 coat protein” value [3] was 36.8 nM.
With “AAGCGCACAUGAGGAUCACCCAUGUGCGGCCGAGGACCGGUACGGCCGCCACUCGGAACUAGAAAUAGGAACGGGUAGUGCGCAA [TryptophanA Sol_1]” the “apparent KD of MS2 coat protein” value (input ligand: arginine 13.2 mM) was 10.6 nM, the “apparent KD of MS2 coat protein” value (input ligand: none) was 11.7 nM and the “apparent KD of MS2 coat protein” value [1] was 13.3 nM. The “apparent KD of MS2 coat protein” value [2] was 13.6 nM and the “apparent KD of MS2 coat protein” value [3] was 10.9 nM.
In the case of “CGAUGAUGAAGGGAUACCAGAAAUGGUAUUCCUUUAUUUCUUACAUGAGGAUCACCCAUGUUCCCUUGGCAGCUUUUUAUCAUCG [ETHB #6]”, the “apparent KD of MS2 coat protein” value (input ligand: arginine 13.2 mM) is reported as 49.3 nM, the “apparent KD of MS2 coat protein” value [1] is reported as 82.6 nM and the “apparent KD of MS2 coat protein” value [3] is reported as 64.4 nM.
With “AACAUGAGGAUCACCCAUGUAUUGGGUGAUACCAGCCUGAAUAAUGGCCCUUGGCAGCACCGCGCUAACUUUAUGUCUGCGAAAC [Erterean]” the “apparent KD of MS2 coat protein” value (input ligand: arginine 13.2 mM) was 87.3 nM, the “apparent KD of MS2 coat protein” value [1] was 456 nM and the “apparent KD of MS2 coat protein” value [3] was 118 nM.
In the case of “UGAUAUGUGGGAAGGAGCGCAUACUUCACAUGAGGAUCACCCAUGUCAAGACGUGAGUCAGUGCAGGUAGGUCGCCUAGUUAUGA [Same State - Arginine B (Freestyle 19)]”, the “apparent KD of MS2 coat protein” value (input ligand: arginine 13.2 mM) is reported as 36.8 nM, the “apparent KD of MS2 coat protein” value (input ligand: none) is reported as 124 nM and the “apparent KD of MS2 coat protein” value [1] is reported as 101 nM. The “apparent KD of MS2 coat protein” value [2] was 147 nM and the “apparent KD of MS2 coat protein” value [3] was 85.3 nM.
In the case of “UGUACCAUGUCGGCCGCCACUCAUGAUAAACAUGAGGAUCACCCAUGUAGCGUCAAAGACGCUAUGAGGACCGGGACAUGGUACU [TryBS Zipper 2 #StaticStem #Zipper]”, the “apparent KD of MS2 coat protein” value (input ligand: arginine 13.2 mM) is reported as 32.5 nM, the “apparent KD of MS2 coat protein” value [1] is reported as 49.2 nM and the “apparent KD of MS2 coat protein” value [2] is reported as 45 nM.
For “AUUACAUGAGCAUCAGCACAUGAGGAUCACCGAGGACCGGUACGGCCGCCACUCGACACAUGAGGAUCACCCAUGUGUUGUUGUU [Exclusion Tryptophan A 3]”, the “apparent KD of MS2 coat protein” value (input ligand: arginine 13.2 mM) was 24.6 nM, the “apparent KD of MS2 coat protein” value [1] was 345 nM and the “apparent KD of MS2 coat protein” value [2] was 281 nM.
In the case of “UAUCCACAUGAGGAUCACCCAUGUUAGGAAGGAGCGGUGAAUGAACCAGGUAGGUCGCCUAGCUGAGGACCAUCAAUGGAUUCGU [Exclusion - Arginine A (Freestyle 14)]”, the “apparent KD of MS2 coat protein” value (input ligand: arginine 13.2 mM) is reported as 18.1 nM, the “apparent KD of MS2 coat protein” value (input ligand: none) is reported as 31.8 nM and the “apparent KD of MS2 coat protein” value [1] is reported as 35.4 nM. The “apparent KD of MS2 coat protein” value [2] was 36.8 nM and the “apparent KD of MS2 coat protein” value [3] was 38.1 nM.
In the case of “CAAGCACCAACCGAUACCAGCUUAGUAGUAUGCUCAUUAAACAUGAGGAUCACCCAUGUGAGCCCUUGGCAGCGGAUUUCCCUGC [theeternabot_exclusion_MS2_Theo_B_12]”, the “apparent KD of MS2 coat protein” value (input ligand: arginine 13.2 mM) is reported as 14.5 nM, the “apparent KD of MS2 coat protein” value [1] is reported as 18.3 nM and the “apparent KD of MS2 coat protein” value [3] is reported as 13.5 nM.
With “UGGCAAGAGGGAAGGAGCGUCAGCAGAGUAACAUGAGGAUCACCCAUGUAGCACGUGGUGUGACAGGUAGGUCGCCCUCUGCCGU [SS-ArgB13]” the “apparent KD of MS2 coat protein” value (input ligand: arginine 13.2 mM) was 28.5 nM, the “apparent KD of MS2 coat protein” value (input ligand: none) was 32.4 nM and the “apparent KD of MS2 coat protein” value [1] was 77.1 nM. The “apparent KD of MS2 coat protein” value [2] was 46 nM and the “apparent KD of MS2 coat protein” value [3] was 28.3 nM.
For “AUAUGAUCAUACGAUACCAGAAAUGGUAUUCCUUUAUUUCUUACAUGAGGAUCACCCAUGUUCCCUUGGCAGCGUAUGAUCAUAU [ETHB #3]”, the “apparent KD of MS2 coat protein” value (input ligand: arginine 13.2 mM) was 125 nM, the “apparent KD of MS2 coat protein” value [1] was 327 nM and the “apparent KD of MS2 coat protein” value [3] was 303 nM.
In the case of “UCGUUUUAGUCGGCCGCCACUGUAUGCAUGUUUAACAUGAGGAUCACCCAUGUCCCGUACUAUUUCAGGACCGGGACGUAAUCGA [JR_SSTryptoB_Sub007]”, the “apparent KD of MS2 coat protein” value (input ligand: arginine 13.2 mM) is reported as 140 nM, the “apparent KD of MS2 coat protein” value [1] is reported as 301 nM and the “apparent KD of MS2 coat protein” value [2] is reported as 484 nM.
In the case of “GCUAGUGGCAGAAGGAGCGAGGCCCGCGCACAUAACAUGAGGAUCACCCAUGUGGCGAGACCUCAGGUAGGUCGCUGCCACUAGC [EAB NP+V2 #1]”, the “apparent KD of MS2 coat protein” value (input ligand: arginine 13.2 mM) is reported as 12 nM, the “apparent KD of MS2 coat protein” value (input ligand: none) is reported as 11.4 nM and the “apparent KD of MS2 coat protein” value [1] is reported as 25.8 nM. For the same sequence, the “apparent KD of MS2 coat protein” value [2] was 14.2 nM and the “apparent KD of MS2 coat protein” value [3] was 12.4 nM.
For “ACAUGAGGAUCACCCAUGUAAGGUCUUGAUACCAGACGCGAAGUAGUCCCUUGGCAGCAAAUACGUGAGGGUCGCACAUGUGUAA [mcnmullin]”, the “apparent KD of MS2 coat protein” value (input ligand: arginine 13.2 mM) was 18.4 nM, the “apparent KD of MS2 coat protein” value (input ligand: none) was 33.1 nM and the “apparent KD of MS2 coat protein” value [1] was 35.9 nM. For the same sequence, the “apparent KD of MS2 coat protein” value [2] was 59.8 nM and the “apparent KD of MS2 coat protein” value [3] was 27.8 nM.
For “GACAUGAGGAUCGAUACCAGCGACAUGAGGAUCACAUGAGGAUCACCCAUGUGUAGUAUACGCCCUUGGCAGCGAACAUGAGGAU [Same State Theophylline B 3]”, the “apparent KD of MS2 coat protein” value (input ligand: arginine 13.2 mM) was 74.3 nM, the “apparent KD of MS2 coat protein” value (input ligand: none) was 51.4 nM and the “apparent KD of MS2 coat protein” value [1] was 71.2 nM. The “apparent KD of MS2 coat protein” value [2] was 39.2 nM and the “apparent KD of MS2 coat protein” value [3] was 32.3 nM.
